The target in data set [1] is T1, MBP-tagged PhBSβ (beta subunit of Petunia hybrida benzaldehyde synthase).
T1 chain: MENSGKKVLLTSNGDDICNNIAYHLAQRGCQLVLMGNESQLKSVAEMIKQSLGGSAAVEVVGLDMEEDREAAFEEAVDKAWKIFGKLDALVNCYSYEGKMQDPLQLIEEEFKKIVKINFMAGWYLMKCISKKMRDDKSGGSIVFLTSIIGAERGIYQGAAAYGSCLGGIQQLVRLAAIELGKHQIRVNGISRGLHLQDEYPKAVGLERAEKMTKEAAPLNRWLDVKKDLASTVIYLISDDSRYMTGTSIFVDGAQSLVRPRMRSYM

For data set [2], the target named is T2, MBP-tagged AtBSβ (beta subunit of Arabidopsis thaliana benzaldehyde synthase).
T2 chain: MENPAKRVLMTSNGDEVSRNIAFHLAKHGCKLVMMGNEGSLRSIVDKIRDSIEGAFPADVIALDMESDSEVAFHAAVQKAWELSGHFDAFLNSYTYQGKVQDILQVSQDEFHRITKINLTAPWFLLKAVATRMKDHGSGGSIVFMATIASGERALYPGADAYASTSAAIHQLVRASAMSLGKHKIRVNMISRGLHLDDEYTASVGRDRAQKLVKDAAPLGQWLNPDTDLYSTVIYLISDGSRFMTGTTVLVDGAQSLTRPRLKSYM

Data set [3] concerns the target T3, MBP-tagged SlBSβ (beta subunit of Solanum lycopersicum benzaldehyde synthase).
T3 chain: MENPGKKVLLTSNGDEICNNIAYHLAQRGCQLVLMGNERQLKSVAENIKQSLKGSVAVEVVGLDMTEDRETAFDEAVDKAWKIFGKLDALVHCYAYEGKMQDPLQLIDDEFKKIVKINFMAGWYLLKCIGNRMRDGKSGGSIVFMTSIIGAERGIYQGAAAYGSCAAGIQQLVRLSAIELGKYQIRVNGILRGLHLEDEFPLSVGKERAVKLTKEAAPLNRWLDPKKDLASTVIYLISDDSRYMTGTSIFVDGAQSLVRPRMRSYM

For data set [4], the target named is T4, MBP-tagged PdBSβ (beta subunit of Prunus dulcis benzaldehyde synthase).
T4 chain: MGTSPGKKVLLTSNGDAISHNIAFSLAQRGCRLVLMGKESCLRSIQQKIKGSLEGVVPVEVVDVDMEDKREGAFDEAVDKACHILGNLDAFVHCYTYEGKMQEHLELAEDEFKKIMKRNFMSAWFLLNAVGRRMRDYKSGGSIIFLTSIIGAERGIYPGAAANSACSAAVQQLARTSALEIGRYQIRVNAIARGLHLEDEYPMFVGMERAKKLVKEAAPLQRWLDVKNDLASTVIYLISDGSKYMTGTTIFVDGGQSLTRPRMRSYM

B1: MBP-tagged AtBSα (alpha subunit of Arabidopsis thaliana benzaldehyde synthase) (protein)
chain: MANQVADHLEPWRHLHGKVVMVTGASSGLGREFCLDLAKAGCRIVAAARRIDRLQSVCDEINQLTVTAPSSSSSSSSVNGPGSSRAVAVELDISADGPAIEKSVNKAWDAFGRIDALVNNAGVRGNVSSSLELSEEEWNNVFKTNLTGSWLVSKYVSIRMRDADQGGSIINVSSIAGLHRGYLPGAVAYNCSKAGVNTLAKVMAMELGVHKIRVNAISPGLFRSEITEGLMKKDWLHNVAMKTVPLRTFGTSDPALTSLVRYLVHDSSEYVSGNVYIVDAGATLPGVPIFSAL
Turning to B1, the “BS activity of hybrid enzyme relative to AtBS” value in data set [1] is “interactions of the three tested β subunits with AtBSα promoted activities of hybrid proteins”; in data set [3], “increasing activity from 4.6- to 7.8-fold in AtBSα-SlBSβ and AtBSα-PdBSβ, respectively, relative to AtBS”; in data set [4], “increasing activity from 4.6- to 7.8-fold in AtBSα-SlBSβ and AtBSα-PdBSβ, respectively, relative to AtBS”. The “benzaldehyde synthase activity (GC-MS)” value in data set [2] is “benzaldehyde synthases from all three organisms (i.e., Solanum lycopersicum, Prunus dulcis, and Arabidopsis thaliana) showed activity only when two purified recombinant subunits were combined”. Also, the “BS activity of hybrid enzyme” value in data set [4] was “the AtBSα-PdBSβ hybrid was as active as PdBS”.

B2: MBP-tagged PdBSα (alpha subunit of Prunus dulcis benzaldehyde synthase) (protein)
chain: MANQVADHLEPWRHLHGKVVMVTGASSGLGREFCLDLAKAGCRIVAAARRIDRLQSVCDEINQLTVTAPSSSSSSSSVNGPGSSRAVAVELDISADGPAIEKSVNKAWDAFGRIDALVNNAGVRGNVSSSLELSEEEWNNVFKTNLTGSWLVSKYVSIRMRDADQGGSIINVSSIAGLHRGYLPGAVAYNCSKAGVNTLAKVMAMELGVHKIRVNAISPGLFRSEITEGLMKKDWLHNVAMKTVPLRTFGTSDPALTSLVRYLVHDSSEYVSGNVYIVDAGATLPGVPIFSAL
B2: the “BS activity of hybrid enzyme relative to PdBS” value in data set [1] and in data set [3] was “the activities of hybrid enzymes comprising PdBSα were up to 2.5-fold lower than that of PdBS enzyme” each time. In addition, the “benzaldehyde synthase activity (GC-MS)” value in data set [4] is “benzaldehyde synthases from all three organisms (i.e., Solanum lycopersicum, Prunus dulcis, and Arabidopsis thaliana) showed activity only when two purified recombinant subunits were combined”.

B3: MBP-tagged SlBSα (alpha subunit of Solanum lycopersicum benzaldehyde synthase) (protein)
chain: METHAKSVRQLEPWGELAGKVVMVTGASSGIGRDFCSDLSKAGCRIIAAARRIDRLQSLCDEINSNSSNGSTKSSQDLRAVAIELDVSANGSAIEAAVQKAWDAFGRIDGLVNNAGFRGSVLSPLELSEEEWEKIHKTNLRGAWLVTKYVCMHMRAANQGGSIINISSIAGINRGQLPGSLAYTSSKEALNSITKVLALELGPYKIRVNSISPGLFKSEITEGLIQKDWIKNIELRTIPLRTHGTSHPALTSVVRYLIHDSSEYVSGNMFIVDAGATLPGVPIFSSL
In the case of B3, the “BS activity of hybrid enzyme relative to SlBS” value is “activities of SlBSα-PhBSβ and SlBSα-PdBSβ were 6.5-fold lower and 2.7-fold higher, respectively, as compared with SlBS” in data set [1]; “activities of SlBSα-PhBSβ and SlBSα-PdBSβ were 6.5-fold lower and 2.7-fold higher, respectively, as compared with SlBS” in data set [4]. The “BS activity of cross-species heterodimers (subunits mixed 1:1)” value in data set [2] was “only the AtBSβ subunit was not able to produce active enzymes upon interaction with PhBSα and SlBSα”. Besides, the “benzaldehyde synthase activity (GC-MS)” value in data set [3] was “benzaldehyde synthases from all three organisms (i.e., Solanum lycopersicum, Prunus dulcis, and Arabidopsis thaliana) showed activity only when two purified recombinant subunits were combined”.

B4: MBP-PhBSα (maltose binding protein-tagged alpha subunit of Petunia hybrida benzaldehyde synthase) (protein)
chain: MEKQTQARFLEPWRDLKGKVVMVTGASSGIGLDLCLDLAKAGCKIIAAARRVDRLKSLCNQINAAADDDDDNNRAVAVELDVSANGDAIEAAVKEAWGAFGRIDALVNNAGVRGTVHSPLELTEEECHNTFRTNLTGTWLVSKYVCKFMRDAKQGGSVINISSIAGLNRGQLPGGLAYVSSKGAVNMVTKVMALELGVDKIRVNSISPGLFKSEITQGLIQKEWLNNVAMRTIPLRTHGNSADPALTSVVRYLIHDSSEYVSGNLFIVDAGATLPGVPIFSSL
On to B4, for which the “benzaldehyde synthase activity (benzoyl-CoA + NADPH, GC-MS)” value in data set [1] is reported as “Neither of the two purified recombinant proteins displayed benzaldehyde synthase activity when tested alone ... however, benzaldehyde was efficiently formed when the two subunit proteins were mixed in equal amounts (e.g., a 1:1 ratio)”. The “BS activity of cross-species heterodimers (subunits mixed 1:1)” value in data set [2] is “only the AtBSβ subunit was not able to produce active enzymes upon interaction with PhBSα and SlBSα”; in data set [3] it was “interactions of PdBSβ and SlBSβ with PhBSα resulted in hybrid enzymes with activities almost identical to that of PhBS”; in data set [4], “interactions of PdBSβ and SlBSβ with PhBSα resulted in hybrid enzymes with activities almost identical to that of PhBS”.

(Values after patent US20250034601.)
